Laboratory results from PMC5825156.

Molecular target: SIMx4 probe (fragment of Ring Finger Protein 4 comprising four SIMs) (Rattus norvegicus) (UniProt O88846)
Experiment: pull-down; lysate of E. coli expressing HA-TbSUMO chains or monomer incubated with His-tagged SIMx4 or mutSIMx4 probe, 50 mM Tris HCl pH 7.6, 150 mM NaCl, 1% NP40, 0.5% deoxycholate, 1.5 h at 4°C; captured on Ni^+2-resin, washed with 250 mM NaCl, eluted with imidazole; Western blot anti-HA, three replicates

Chain of UniProt O88846 (O88846 32-132): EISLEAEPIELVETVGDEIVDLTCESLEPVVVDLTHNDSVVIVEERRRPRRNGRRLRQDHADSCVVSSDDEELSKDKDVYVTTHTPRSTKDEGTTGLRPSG

“HA-TbSUMO chains (poly-SUMO chains of Trypanosoma brucei SUMO made by in bacteria SUMOylation)” was tested, and the fold pulled down against the mutSIMx4 probe or beads alone was > 3 fold.
